From the nanobody polyreactivity screen of Harvey et al. (2022)

Experiment: yeast display, Sf9 membrane polyspecificity reagent, FACS + sequencing; frameworks hold sequencing errors
Procedure, shortened: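 Using colony PCR, genes from sorted yeast display clones were amplified, then sequenced on MiSeq at 2 × 250 and filtered by CDR length. The clones had been stained with 10% biotinylated, detergent-solubilized Sf9 membrane reagent for 1 hour at 4 °C and sorted by FACS into low and high (top ~1%) gates on anti-HA and streptavidin fluorescence. Polyreactivity labels come from the gate of origin.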

Row | Sequence | polyreactivity (PSR sort gate)
1 | HVQLVESGGGLVQAGGSLRLSCAASGLIFYNYAMGWYRQAPGKERELVAAITGSGGSTYYADSVKGRFTISRDNAKNTVYLQMNSLKPEDTAVYYCAADGIYTFEYWGQGTLVTVSS | low polyreactivity
2 | HVQLVESGGGLVQAGGSLRLSCAASGLTFDVNAMGWYRQAARKERELVAAITADDGSTYYADSVKGRFTISRDNAKNTVYLQMNSLKPEDTAVYYCAADYVNLPYIMDYWGQGTQVTVSS | low polyreactivity
3 | HVQLVESGGGLVQAGGSLRLSCAASGLTFSRYTMGWYRQAPGKERELVAAISRSGASTYYADSVKGRFTISRDNAKNTVYLQMNSLKPEDTAVYYCAKTSTSYGSLRKVTPYPLDYWGQGTQVTVSS | high polyreactivity
4 | HVQLVESGGGLVQAGGSLRLSCAASGRISLFNAMGWYRQAPGKERELVAAITYTGGSTYYADSVKGRFTISRDNAKNTVYLQMNSLKPEDTAVYYCAAEYYYVYTYDYWGQGTQVTVSS | high polyreactivity
5 | HVQLVESGGGLVQAGGSLRLSCAASGRIYWANAKGRYRQAPGKERELVAAISYSGGTYYADSVKGGFTISRDNAKNTVYLQMNSLKPADTAVYFCAAVDRRDGTKRWGFDYWGQGTQVTVSS | high polyreactivity
6 | HVQLVESGGGLVQAGGSLRLSCAASGRTFNVNAMGWYRQAPGKERELVAAIDFSDGRTYYADSVKGRFTISRDNAKNTVYLQMNSLKPEDTAVYYCARSFRVGNTWYDYWGQGTQVTVSS | high polyreactivity
7 | HVQLVESGGGLVQAGGSLRLSCAASGRTFVNNAMGWYRQAPGKERELVAAISQSGSRTYYADSVKGRFTISRDNAKNTVYLQMNSLKPEDTAVYYCAARGARYSTSDYWGQGTQVTVSS | high polyreactivity
8 | HVQLVESGGGLVQAGGSLRLSCAASGSIFFRNTMGWTRQAPGKEREKVAAITRGGGRTYYADSVKGRFTISRDNAKNTVYLQMNSLQPEDTAVYYCNTADYHGRWAFAWYGDYWGQGTQVTVSS | high polyreactivity
9 | HVQLVESGGGLVQAGGSLRLSCAASGSIFWRYAMGWYRQAPGKERELVAAITWSGGTSYADSVKGRFTISRDNAKNTVYLQMNSLKPEDTAVYYCNADGLSYYLYDYWGQGTQVTVSS | low polyreactivity
10 | HVQLVESGGGLVQAGGSLRLSCAASGSSLDYYVMGWYRQAPGNERELVAAIRGGGSTYYADSVKGRFTISRDNAKNTVYLQMKSLKPEDTEVYYCAKDSQTARDFDYWGQGTQVTVSS | low polyreactivity
11 | HVQLVESGGGLVQAGGSLRLSCAASGSSSAKYAMGWYRQAPGKERELVAAITSRADSTYYADSVKGRFTISRDNAKNTVYLQMNSLKPEDTAVYYCNVRITVYRSDVWYFIYDYWGQGTQVTVSS | low polyreactivity
12 | HVQLVESGGGLVQAGGSLRLSCAASGSTFGGNAMGWYRQAPGKERELVAAISKSGGRTFYADSVKGRFTISRDNAKNTVYLQMISLKPEDTAVYYCAAQYRGYGYWGQGTQVTVSS | high polyreactivity
13 | HVQLVESGGGLVQAGGSLRLSCAASGSTFGSYALGWYRQAPGKERELVADISSRGASTYNADSVKGRFTISRDNAKNTVYLQMNSLKPEDTAVSYCATDKLYGRTVRMDYWGQGTQVTVSS | low polyreactivity
14 | HVQLVESGGGLVQAGGSLRLSCAASGSTFGYYTMGWYREAPGKERELVAAISWSGGSTYYADSVKGRFTISRDNAKNTVYLQMNRLKPEDTAVYYCAALGYTYKYYSYYWGQGTQVTVSS | high polyreactivity
15 | HVQLVESGGGLVQAGGSLRLSCAASGSTFIGYDMGWYTQAPGKERELVAAISYYDGTYYADSVNGSFTISRDNAKNTVYLQMNTLKPEDTAVYFCGVYRYDYWGQGTQVTVSS | low polyreactivity
16 | HVQLVESGGGLVQAGGSLRLSCAASGSTFSAYAMGWDRQAPGKERELVASISYSGSSTYYADSVKGRFTISRDNAKNTVYLHMNSLNPEDTAVSSCAADDRYWGPGGPLSRWSRGMYYWGQGTQVTVSS | high polyreactivity

Row | Sequence | polyreactivity (PSR sort gate)
17 | HVQLVESGGGLVQAGGSLRLSCAASGSTFSSYAMGWYRQAPGQERELVAAITGGGANTYYADSVKGRFTISRDNAKNTVYLQMNSLKPEDTAVYYCNARSGYLHSKWTGYYWGQGTQVTVSS | low polyreactivity
18 | HVQLVESGGGLVQAGGSLRLSCAPSGRTFIGYAMGWYRQAPGKERELVAAITSRGRTNYADSVKGRFTISRDNAKNTVYLQMNSLNPEDTAVYYCAARTYGYWYYGFRGDYWGQGTQVTVSS | high polyreactivity
19 | HVQLVESGGGLVQAGGSLRLSCGASGRIFRGNVMGWYRQAPGTERELVAAISWSGGSSYADAVKGRFSISRDNAKNTVYLQMNRLKPDDTAVYYWNADSLDGPKFDYWGQGTQVTVSS | low polyreactivity
20 | HVQLVESGGGLVQAGGSLRLSFAASGFTFRSYAMGWYRKAPGQERELVAAINWRGDSTYYADSVKGRFTISRDNAKNTVYLQMNSLNPEDTAVYYCNAYSGYIRRTASDYWGQGTQVTVSS | high polyreactivity
21 | HVQLVESGGGLVQAGRSLRFSCAASGSIFLYNAMGWYRQAPGKERELVAAISKSGGSTYYADSVKGRFTISRDNAKNTVYLQMNSLKPEDTAVYYCAAGYGRRIRYCSEYDYWGQGTQVTVSS | low polyreactivity
22 | HVQLVESGGGLVQAGVSLRLSCAASGRIFVLYTRGWYRQAPGKDRELVAAISRRGGNTNYADSVKGRFTISRDNAMNTVYLQMNSLKPEDTAVYYCNARWTGARYYYYPMDYWGQGTQVTVSS | high polyreactivity
23 | HVQQQESGGGLVQAGGSLRLSCAASGNISYSRNMGWYRQAPGKERELVAAIDRGAITYYADSVQGRFTISRDNAKNTVYLQIYSLKPEDTAVYYCAAEYHDRWDHRYWGQGTQVTVSS | high polyreactivity
24 | HVQVVESGGGLVQAGGSLRLSCAASGRIFLLYTMGWYRQAPGKERELVAAISSDDSTNYADSVKGRFTISRDNAKNTVYIQMNSLKPEDTAVYYCAAGRKSYYRIYSEYVEFDYWGQGTQVTVSS | low polyreactivity
25 | HVRLQESGGGLVQAGGSLRQSCAASGAISPYYDMGWYRLAPGKEREFVASIAHGGTTYYADSVKGRFTTSRDNAKNTVYLQMNSLKPEDTAVYYCAVAYDVWHSHIYRGQGTQVTVSS | high polyreactivity
26 | HVRLQESGGGLVQAGGSLRQSCAASGAISPYYDMGWYRLAPGKEREFVASIAHGGTTYYADSVKGRFTTSRDNAKYNVYLRMNRLKPEDTAVYFCAAPKRYLGDYWGQGTQVTVSS | high polyreactivity
27 | IIPAGGSLRLSCAASGATLIGYTMGWYRQAPGKERELVDAITWGAGSTNYADSVKGRFTISRDNAKNTVYLQMNSLKPEDTAVYDCNADSISDPRYLGEYDYWGQGTQVTVSS | low polyreactivity
28 | IIQAGGSLRLSCAASGRTFSGYAMGWYRQAPGKERELIADITSGGSTYYADSVKGRFTISRDNAKNTVYLQMNSLKPEDTAVYYCAAERQIRSFWSSRTYEFGYWGQGTQVTVSS | low polyreactivity
29 | IIQAGGSLRLSCAASGRTFSGYAMGWYRQAPGKERELIDDITSGGSTYYADSVKGRFTISRDNAKNTVYIQMNSLKPEDTAVYYCAAERHIRSFSSSRTYEFGYWGQGTQVTVSS | low polyreactivity
30 | KGQLVESGGGLVQAGGSLRLTCAASGSNFRFYAMGWYRQAPGKERELVAAITYRSGITYADSVKGRFTISRDNAKNTVYVQMNSLKPEDTAVYYCAARARRYTDEYDYWGQGSQVTVSS | low polyreactivity
31 | KGQLVESGGGLVQEGGSLRLSCAASGNTFVNNHMVWYRQAPGEERELVAAISRRAGSTYYADSVKGRFTISRENAKNTVYIQKNSLKPEENAVYYCAARGSRYYYVQGASKYDYWGQGTQVTVSS | high polyreactivity
32 | KLQLVESGGGLVQAGGSLRLSCASSGSIFVWYAMGWYIQAPGKDRELVARITSGGRTNYADSVKGRFTISRDNAKNTVYLQMNSLKPEDTAVFYCAAGRVSWSPYYYWGQGTQVTVSS | high polyreactivity
